The values below are quoted from earlier work in paper PMC5576036.

A word on the Kd: it is the equilibrium constant for the complex coming apart.

Series [1] addresses CD122 (IL-2Rβ) (Homo sapiens) (UniProt P14784).
For series [2], the target named is intermediate-affinity IL-2R (CD122/CD132) (Homo sapiens) (UniProt P14784).
In series [3] the target is CD25 (IL-2Rα) (Homo sapiens) (UniProt P01589).
Chain of UniProt P01589 (P01589 22-240): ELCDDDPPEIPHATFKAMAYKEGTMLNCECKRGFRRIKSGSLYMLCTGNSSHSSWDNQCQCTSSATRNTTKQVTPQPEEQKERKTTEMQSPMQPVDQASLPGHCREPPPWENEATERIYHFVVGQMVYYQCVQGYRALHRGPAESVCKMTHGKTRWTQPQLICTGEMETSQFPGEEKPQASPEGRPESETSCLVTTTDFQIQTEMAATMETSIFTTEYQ

With IL-2 (from UniProt P60568), the dissociation constant Kd in series [1] was 100 nM; in series [2], 1 nM; in series [3] it was 10 nM.
